Results published in article PMC12263435, “Mechanistic basis for PYROXD1-mediated protection of the human tRNA ligase complex against oxidative inactivation” (Nature Structural & Molecular Biology, 2025).
Residue numbers refer to the chain shown, from its start. Names may count otherwise. Blank lines part the entries; values can stand above or below the molecule they belong to.

Key:
RTCB–PYROXD1 complex = target: T1, RTCB–PYROXD1 complex (Homo sapiens, UniProt Q8WU10); assay: cryo-EM structure, […] Å; type: binding; settings: prepared with 0.5 mM NADH, 5 mM MgCl2, pH 8.0, redox state NAD+ inferred (charge-transfer complex), PYROXD1 active site
T1 construct: PYROXD1 (GST cut, E. coli) with RTCB (N-terminal tag cut by TEV, Sf9); 1:1 complex with Mg2+ in RTCB; with RNA-splicing ligase RtcB homolog
T1 sequence (Q8WU10 1-500): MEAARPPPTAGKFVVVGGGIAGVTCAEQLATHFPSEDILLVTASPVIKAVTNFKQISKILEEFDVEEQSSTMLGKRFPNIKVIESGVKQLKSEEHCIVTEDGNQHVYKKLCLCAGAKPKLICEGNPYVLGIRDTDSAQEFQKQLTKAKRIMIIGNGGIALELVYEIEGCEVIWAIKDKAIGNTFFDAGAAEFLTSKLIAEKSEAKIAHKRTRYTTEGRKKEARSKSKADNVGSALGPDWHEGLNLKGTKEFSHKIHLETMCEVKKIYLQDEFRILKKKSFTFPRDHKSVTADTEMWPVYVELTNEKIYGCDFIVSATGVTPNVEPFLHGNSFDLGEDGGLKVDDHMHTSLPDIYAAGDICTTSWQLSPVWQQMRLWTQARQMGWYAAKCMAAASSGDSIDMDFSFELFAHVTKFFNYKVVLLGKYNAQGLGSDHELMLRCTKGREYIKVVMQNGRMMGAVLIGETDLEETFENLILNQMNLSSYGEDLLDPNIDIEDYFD
T1 sequence (Q9Y3I0 1-505 partner): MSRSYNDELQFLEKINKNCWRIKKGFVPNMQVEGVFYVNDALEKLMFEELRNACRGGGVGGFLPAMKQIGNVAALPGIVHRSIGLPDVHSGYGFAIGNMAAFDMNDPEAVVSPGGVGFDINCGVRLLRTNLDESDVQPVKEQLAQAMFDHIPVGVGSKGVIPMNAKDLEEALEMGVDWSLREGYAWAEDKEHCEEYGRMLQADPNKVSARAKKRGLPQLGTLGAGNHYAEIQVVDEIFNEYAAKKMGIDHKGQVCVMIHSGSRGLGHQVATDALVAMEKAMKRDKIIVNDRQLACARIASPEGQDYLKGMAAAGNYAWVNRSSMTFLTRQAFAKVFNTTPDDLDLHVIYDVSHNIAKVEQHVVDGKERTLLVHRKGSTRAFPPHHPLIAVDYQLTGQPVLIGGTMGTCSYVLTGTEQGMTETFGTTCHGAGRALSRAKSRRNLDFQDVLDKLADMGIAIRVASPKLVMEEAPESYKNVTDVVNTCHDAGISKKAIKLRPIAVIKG

RTCB (with Archease) = target: T2, RTCB (with Archease) (Homo sapiens, UniProt Q9Y3I0); assay: guanylylation of RTCB, intact-protein LC-MS; type: biochemical; settings: covalent GMP adduct on RTCB His428, 2.5 mM MnCl2, 0.5 mM GTP, 20 mM HEPES pH 8.0, 25 °C
T2 construct: RTCB, N-terminal tag cut by TEV, Sf9; Archease residues 27-168, His6-MBP cut, E. coli; with Protein archease
T2 sequence (Q9Y3I0 1-505): T1 sequence (Q9Y3I0 1-505 partner)
T2 sequence (Q8IWT0 27-167 partner): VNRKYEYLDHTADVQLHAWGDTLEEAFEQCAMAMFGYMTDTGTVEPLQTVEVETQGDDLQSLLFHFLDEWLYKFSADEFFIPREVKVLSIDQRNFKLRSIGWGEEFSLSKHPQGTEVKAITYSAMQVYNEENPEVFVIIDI

StrepII–GFP–RTCB [1] = target: T3, StrepII–GFP–RTCB (human, UniProt Q9Y3I0 1-505); assay: pull-down; StrepII–GFP–RTCB (0.2 nmol) immobilised on MagStrep type 3 XT beads, 0.4 nmol PYROXD1; HEPES pH 8.0, 150 mM KCl, 0.1% Tween-20, 1 mM TCEP, 0.5 mM NADH, 2.5 mM MgCl2, 2.5 mM MnCl2; 30 min at 4 °C; SDS–PAGE, Coomassie Blue; settings: both partners purified
T3 construct: human RTCB (UniProt Q9Y3I0), catalytic subunit of the tRNA ligase complex; inserted into the 438-Rgfp plasmid; a TEV site lies between GFP and RTCB; In the dissociation assay it is called 2× StrepII–GFP–RTCB; also called immobilized RTCB; 2× StrepII–GFP–RTCB; source: Sf9 insect cells (baculovirus), purified (Strep-Tactin, SEC); not shown: StrepII, N-terminal, kept; super folder green fluorescent …
T3 sequence: T1 sequence (Q9Y3I0 1-505 partner)

purified protein = substrate: NC(=O)C1=CN([C@@H]2O[C@H](COP(=O)(O)OP(=O)(O)OC[C@H]3O[C@@H](n4cnc5c(N)ncnc54)[C@H](O)[C@@H]3O)[C@@H](O)[C@H]2O)C=CC1; assay: purified protein; type: biochemical, Homo sapiens; settings: aerobic (O2 as acceptor), 20 mM Tris-HCl pH 8.0, 150 mM KCl, 0.05% Tween-20, 22 °C
RTCB = target: T4, RTCB (human, UniProt Q9Y3I0 1-505); assay: cryo-EM structure; 100 µM RTCB mixed 1:1 with 100 µM PYROXD1 in 20 mM HEPES pH 8.0, 150 mM NaCl, 0.5 mM TCEP, 5 mM MgCl2, 0.5 mM NADH; SEC; single-particle cryo-EM; settings: both partners purified
T4 construct: human RTCB (UniProt Q9Y3I0); inserted into the 438B plasmid (N-terminal hexahistidine tag, TEV site); the tag is removed by TEV in either case; also called apo-RTCB; un-guanylylated RTCB; source: Sf9 insect cells (baculovirus), purified (Ni-NTA, TEV cleavage, SEC); not shown: His6, N-terminal, cleaved
T4 sequence: T1 sequence (Q9Y3I0 1-505 partner)

StrepII–GFP–RTCB [2] = target: T3, StrepII–GFP–RTCB; assay: pull-down; dissociation kinetics: complex formed with 0.5 mM NADH and 5 mM MgCl2, held on Strep-Tactin beads via StrepII–GFP–RTCB, NADH and unbound PYROXD1 washed out, bound PYROXD1 followed over time under aerobic conditions; Coomassie Blue; settings: both partners purified

Molecule: Cc1cc2c(cc1C)N(C[C@H](O)[C@H](O)[C@H](O)COP(=O)(O)OP(=O)(O)OC[C@H]1O[C@@H](n3cnc4c(N)ncnc43)[C@H](O)[C@@H]1O)c1[nH]c(=O)[nH]c(=O)c1N2 [FADH^−]
cryo-EM structure, 3.3 Å (RTCB–PYROXD1 complex; redox state FADH- inferred): PYROXD1 coordinates FADH^− with residues including Gly18, Ala21, Thr42, Ala43

Molecule: NC(=O)c1ccc[n+]([C@@H]2O[C@H](COP(=O)(O)OP(=O)(O)OC[C@H]3O[C@@H](n4cnc5c(N)ncnc54)[C@H](O)[C@@H]3O)[C@@H](O)[C@H]2O)c1 [NAD^+]
cryo-EM structure, 3.3 Å (RTCB–PYROXD1 complex): NAD^+ interacts with residues Gly157, Ile158, Arg374, His410 and Thr412

Molecule: Nc1nc2c(ncn2[C@@H]2O[C@H](COP(=O)(O)OP(=O)(O)OP(=O)(O)O)[C@@H](O)[C@H]2O)c(=O)[nH]1 [GTP]
guanylylation of RTCB, intact-protein LC-MS (RTCB (with Archease)): generating a mixture of guanylylated and un-guanylylated RTCB

binding result (StrepII–GFP–RTCB [1]): binds
B1: PYROXD1 ∆500 (domain or fragment, human, UniProt Q8WU10 1-499, looked up)
chain: MEAARPPPTAGKFVVVGGGIAGVTCAEQLATHFPSEDILLVTASPVIKAVTNFKQISKILEEFDVEEQSSTMLGKRFPNIKVIESGVKQLKSEEHCIVTEDGNQHVYKKLCLCAGAKPKLICEGNPYVLGIRDTDSAQEFQKQLTKAKRIMIIGNGGIALELVYEIEGCEVIWAIKDKAIGNTFFDAGAAEFLTSKLIAEKSEAKIAHKRTRYTTEGRKKEARSKSKADNVGSALGPDWHEGLNLKGTKEFSHKIHLETMCEVKKIYLQDEFRILKKKSFTFPRDHKSVTADTEMWPVYVELTNEKIYGCDFIVSATGVTPNVEPFLHGNSFDLGEDGGLKVDDHMHTSLPDIYAAGDICTTSWQLSPVWQQMRLWTQARQMGWYAAKCMAAASSGDSIDMDFSFELFAHVTKFFNYKVVLLGKYNAQGLGSDHELMLRCTKGREYIKVVMQNGRMMGAVLIGETDLEETFENLILNQMNLSSYGEDLLDPNIDIEDYF
notes: human PYROXD1 (UniProt Q8WU10), C-terminal truncation ∆500 (lacks the C-terminal residue Asp500); source: E. coli BL21(DE3), purified (Glutathione Sepharose, 3C cleavage, SEC); not shown: GST, N-terminal, cleaved

binding result (StrepII–GFP–RTCB [1]): binds
B2: PYROXD1 ∆E496 (enzyme, human)
chain: B1 chain with E496D, D497Y, Y498F, F499D
notes: source: E. coli BL21(DE3), purified (Glutathione Sepharose, 3C cleavage, SEC); not shown: GST, N-terminal, cleaved

stoichiometry N (RTCB): 1
half-life of the complex upon NADH removal (StrepII–GFP–RTCB [2]): ~2 min
B3: PYROXD1 (enzyme, human)
chain: T1 sequence (Q8WU10 1-500)
notes: human PYROXD1 (UniProt Q8WU10), amplified from HeLa cDNA, in pGEX-6P-1; FAD-containing flavoprotein; also called wild-type PYROXD1; WT; source: E. coli BL21(DE3), purified (Glutathione Sepharose, 3C cleavage, SEC); not shown: GST, N-terminal, cleaved
Km (purified protein): 611.0 ± 98.3 µM

B4: PYROXD1 (Homo sapiens; W239A) (protein)
chain: T1 sequence (Q8WU10 1-500) with W239A
notes: full-length from HeLa cDNA, N-terminal GST cut off with 3C protease; E. coli BL21(DE3); FAD-containing
Km (purified protein; text prints W293A, figure legend W239A): 1472.1 ± 105.0 µM

binding result (StrepII–GFP–RTCB [1]): binds
B5: PYROXD1 Y498A (enzyme, human)
chain: T1 sequence (Q8WU10 1-500) with Y498A
notes: human PYROXD1 (UniProt Q8WU10) with Y498A; source: E. coli BL21(DE3), purified (Glutathione Sepharose, 3C cleavage, SEC); not shown: GST, N-terminal, cleaved

binding result (StrepII–GFP–RTCB [1]): binds
B6: PYROXD1 D500A (enzyme, human)
chain: T1 sequence (Q8WU10 1-500) with D500A
notes: human PYROXD1 (UniProt Q8WU10) with D500A; source: E. coli BL21(DE3), purified (Glutathione Sepharose, 3C cleavage, SEC); not shown: GST, N-terminal, cleaved

binding result (StrepII–GFP–RTCB [1]): binds
B7: PYROXD1 D497A (enzyme, human)
chain: T1 sequence (Q8WU10 1-500) with D497A
notes: human PYROXD1 (UniProt Q8WU10) with D497A; source: E. coli BL21(DE3), purified (Glutathione Sepharose, 3C cleavage, SEC); not shown: GST, N-terminal, cleaved

binding result (StrepII–GFP–RTCB [1]): binds
B8: PYROXD1 F499A (enzyme, human)
chain: T1 sequence (Q8WU10 1-500) with F499A
notes: human PYROXD1 (UniProt Q8WU10) with F499A; source: E. coli BL21(DE3), purified (Glutathione Sepharose, 3C cleavage, SEC); not shown: GST, N-terminal, cleaved
